The source of these data is the DeepSol protein solubility set.

The nature of this series: soluble on expression in E. coli; label from the status in PepcDB or PDB records.
“MGSDKIHHHHHHMLAQGQRFEGLLCGDDSSRCEVVEMAKLTQFLISGACALLITATSAIADPIAPAGKAIGQDGGGHTIYQVDANGISIGYKLIGQGAPMVMIMGLGGTADNWPPQVIEALSKNHQLILMDNRGMGHTTANDTPFSYPLFAADVIGLLDALGIKRSDVLGYSMGSTITQQLLLQYPDRFNKALIHATSTDGSNVAKALHGRVPTDPIVARQVEATTHWKTPLDKLPSIDNQVMLVVGTADNVVGTESSKTIASAIPGAWLVQFKGATHHLMYETPEGFSAAALTFFETNETVTPKIEPNASVAPPPTQP”: the “soluble on expression in E. coli” value is “not soluble”. Take “MGSDKIHHHHHHMIRVLLANPRGFCAGVDRAIEIVERALAMYGAPIYVRHEVVHNRFVVEDLEKKGAVFVENLEEVPEGSMLIFSAHGVSHEVRREAAARKLQIFDATCPLVTKVHVEVAKMDKEGKEIVMIGHQGHPEVEGTMGQIAKSKGTMYLVETAEDVARLQVKNESNLAYVTQTTLSVDDAARVIEALKQRFPKIIGPKKDDICYATQNRQDAVKKLVKLCDLVVVVGSPNSSNSNRLCEVARNENVEAYMVDQAEQLQESWLTNKRCIGITAGASAPEILVQQVLERLEQIAAKQSNQGVIIEELSGVLESVTFPLPKAEPVSFNKYI”: the “soluble on expression in E. coli” value is “not soluble”. Next, “MMRNSHTIENFERMPDGETSSLPDITNYQESVDENPVEECSAYSDTIATCSMCLQVAPHSQFFACTYPGCGYALKQKESVKSPTLFYRKERVLCGACAFLGDHAHHKAYLLKADKLAFLTASREIGGKLEMDMEEVCRLDKSHPVDNAMIIKSGGHVELEKISVVSFLSQAKTIEEWHSRHCMVNEMLSTIKYNREQGIDYLRKQSEKVMTLLNNAAQEIKSVSRTLPKQLTNQDKPHTSFGRRQHASQKNTEWANEEYSPFSSTCSESSTSTLHMAKALQSVDDEVTGGFGGFGFGFGASAVNKSLKGQIKSENYTSIAVTRLYKMLIRTEPKETALRRAADYLNELTHSKTEKKAVIEYMEKKHSIKWPEHII”: “not soluble”.

For the sequence “MTIRLNDLGQVYLVCGKTDMRQGIDSLAYLVKSQHELDLFSGAVYLFCGGRRDRFKALYWDGQGFWLLYKRFENGKLAWPRNRDEVKCLTAVQVDWLMKGFFISPNIKISKSHDFY”, the “soluble on expression in E. coli” value was “not soluble”.

“MGSDKIHHHHHHMEKDRHEIEIFKIDQMFIGDSQEELIKQGEGRRKEHPIAAISTFNPVKRDVFQLIKLTEEKMIPELLGMRHKRMMQNPFSYFRATAGIMEKDLRQFPDGQSHIPVIICGDSHLTNFGFFASPERHLLFGLNDFDEARIGNWEFDLKRLLTSVVLIGRINGYPKEQLDGILAESVHSYRRGIKYANSLPLLDRFNLSYSVDDLLGQMTDNEQMKRVLLKVADRAPKKNSDAVVKKFTEKTEDGRLRFKKNPPRARRVSQKVYAELMASLEDYQKSVADDIRVLLINYEVTDIIRYSVGVGSWGTRCYLALLTGKDGSHLVLQIKEALPLRYNLSALTVEESQAQGKGEGKRIITAQRVLQTYHDPFLGAMEAGGRSFYVRQFRDMKDSIDPLNLDQESFSAYCNMCAFILAIAHYQSPTAPMIYGYVHKQKELDTGLAHWAVKYADQMEADYTCFAKYLQGEGDEE”: the “soluble on expression in E. coli” value was “not soluble”. Regarding “MEKQWWKESVVYQIYPRSFMDSNGDGIGDLRGIISKLDYLKELGIDVIWLSPVYESPNDDNGYDISDYCKIMNEFGTMEDWDELLHEMHERNMKLMMDLVVNHTSDEHNWFIESRKSKDNKYRDYYIWRPGKEGKEPNNWGAAFSGSAWQYDEMTDEYYLHLFSKKQPDLNWDNEKVRQDVYEMMKFWLEKGIDGFRMDVINFISKEEGLPTVETEEEGYVSGHKHFMNGPNIHKYLHEMNEEVLSHYDIMTVGEMPGVTTEEAKLYTGEERKELQMVFQFEHMDLDSGEGGKWDVKPCSLLTLKENLTKWQKALEHTGWNSLYWNNHDQPRVVSRFGNDGMYRIESAKMLATVLHMMKGTPYIYQGEEIGMTNVRFESIDEYRDIETLNMYKEKVMERGEDIEKVMQSIYIKGRDNARTPMQWDDQNHAGFTTGEPWITVNPNYKEINVKQAIQNKDSIFYYYKKLIELRKNNEIVVYGSYDLILENNPSIFAYVRTYGVEKLLVIANFTAEECIFELPEDISYSEVELLIHNYDVENGPIENITLRPYEAMVFKLK”, the “soluble on expression in E. coli” value is “soluble”.

On to “MGKVPEEVRSYLMEAHSLAGQWSLPNDRGDHTNSEAYDVNSVAIIGGGTMGKAMAICFGLAGIETFLVVRNEQRCKQELEVMYAREKSFKRLNDKRIEKINANLKITSDFHKLSNCDLIVESVIEDMKLKKELFANLENICKSTCIFGTNTSSLDLNEISSVLRDPSNLVGIHFFNPANVIRLVEIIYGSHTSSQAIATAFQACESIKKLPVLVGNCKSFVFNRLLHVYFDQSQKLMYEYGYLPHQIDKIITNFGFLMGPMTVADMNGFDVMEKLKKENGLEPNPIEKEMWRLKRYGRKTNKGFYKYDDKTQRKENDTEMEQIIRRVSQNAKSNIQIINDQDVINFMLYPTVNEGYRCIEEGVISNESLIDIMFILGFGWPIHSGGPMRFGKTEGLDKIANMLVHWSSLEPKESAYIVADALKTANNKLMSSKL”, for which the “soluble on expression in E. coli” value is “soluble”. Next, “MAAKPKLYYFNGRGRMESIRWLLAAAGVEFEEEFLETREQYEKMQKDGHLLFGQVPLVEIDGMMLTQTRAILSYLAAKYNLYGKDLKERVRIDMYADGTQDLMMMIAVAPFKTPKEKEESYDLILSRAKTRYFPVFEKILKDHGEAFLVGNQLSWADIQLLEAILMVEELSAPVLSDFPLLQAFKTRISNIPTIKKFLQPGSQRKPPPDGPYVEVVRIVLKF”: “soluble”; “MGSDKIHHHHHHMKRAVVVFSGGQDSTTCLIQALQDYDDVHCITFDYGQRHRAEIEVAQELSQKLGAAAHKVLDVGLLNELATSSLTRDSIPVPDYDANAQGIPNTFVPGRNILFLTLASIYAYQVGAEAVITGVCETDFSGYPDCRDEFVKALNQAIVLGIARDIRFETPLMWLNKAETWALADYYQQLDTVRYHTLTCYNGIKGDGCGQCAACHLRANGLAQYQKDAATVMASLKQKVGLR”: “not soluble”; “MSLAVNNIIKRIRNIMRQDAGINGDAQRIEQMTWMIFLKVYDTQEETWEYKASRESKTYQSIIPKDLRWRNWAVDEKDGEALTGEALLSFVNEKLFPALKNLPVDANTPRAKSIVQETFADLNQYMKNGTLLRQVVNIVNEIEFDDADDRHTFGDIYEGILKDLQSAGNAGEFYTPRALTDFIVMMLDPKLGETFGDFTSGTGGFLTSALNYMGKSVRSAEDGEKLQNAVVGQEWKPLPYLLSITNLLLHDIEAPNIANCDSLGTNVTDFKETDKVDVIGMNPPYGGSTEDSVKNNFPLRYRSSETADLFIALIMYRLKAGGRCGVIIPDGFLFGTDGAKLALKENLLRKFNLHTIIRLPGSIFSPYTSIATNILFFNNEEAEGCEEGFKTKETWFYRLDMPEGYKHFSKNKPMKVEHTLPIQEWWNDRKEIVSSETGEKSRVFTAQQLLDLNCNFDQCKFPKEEEEILPPAEGHHHHHH”: “soluble”. Next, “MGSDKIHHHHHHMKELFEFNNVSFSYKDVKEQALVDLNFSIKKGSLTLITGSSGSGKSTLLKLMNGLIPRLYDGKLVGEILFENNSLQSLTQESISKNIGYVSQDPRGQFFTTNTTSELVFSMENFGFTKEHMDKRINELAELLDLSNILDKNIFSLSSGERQKISIGCSLSLNSKLIILDEPSSNLDFQATKKLADLLCDLKNKGFTIVIAEHRFYYLKELIDQVLFVKNRTVKTTTIQLLKTENNNALRKFDIFNSSIEVPYIEKASADVLKVEEITYENILKDINFDVKVGDVIGLVGKNGVGKTTLLRILMKIIRPTKGKIIENKKNLSSPFLVMQEMDYQFFTESVRSELALGNEIVSKDQQEKILKKMELYKMKDQLPFDLSGGEKQRLLVSIASLSKTNLFLFDEPTSGLDYINMERIADLIKDLKEKGAVVIATHDPEFLYKICNRIIYLKNGGIKKDIKLRVEDSTLIEQIFNDITK”: “not soluble”; “MGSDKIHHHHHHMDRLIYTAMTGLKHIMEQQSTTANNLANATTTGFRAQIDSFRAVPVLSDGLPTRAFVVDATVGTNFNSGVINTTGRELDLAIRDQGWFAVQRPDGTEAYTRNGNFKLNENGVLQTQDGMMVLGDNGPITIPLEAKVAFANDGMVSAVATNVVPLFTNMIGRLKLVNPGDDNLVRGPDGLFETRNREPVPASANVTIVSGALEGSNVNVVEEMVNMISQARQFDLQTKLIQNAENNATKAGQIFSLS”: “not soluble”. The same measure for “MAHQLLIGKGMITLNLKRIFLALTLLPLFAVAADDCALSDPTLTVQAYTVNPQTERVKMYWQKANGEAWGTLHALLADINSQGQVQMAMNGGIYDESYAPLGLYIENGQQKVALNLASGEGNFFIRPGGVFYVAGDKVGIVRLDAFKTSKEIQFAVQSGPMLMENGVINPRIHPNVASSKIRNGVGINKHGNAVFLLSQQATNFYDFACYAKAKLNVEQLLYLDGTISHMYMKGGAIPWQRYPFVTMISVERKGLEHHHHHH”: “not soluble”; for “AIARGHGTYMDEDRLTASVAGQVERVNKLICVKPLKTRYNGEVGDVVVGRITEVQQKRWKVETNSRLDSVLLLSAVNLPGGELRRRSTQDELAMRDYLQEGDLISAEVQSIFSDGALSLHTRSLKYGKLGQGVLVYVSPSLVKRQKTHFHNLPCGASLILGNNGYVWLSPTPALQEEQAGGFYTSMEPVSLSDREVVSRLRNCLLALANQKVLLFDTSVLYCYEASLQHQIKDILKPEIMEEIVLETRQRLMEHEG”: “soluble”; for “QITLKESGPGIVQPSQPFRLTCTFSGFSLSTSGIGVTWIRQPSGKGLEWLATIWWDDDNRYNPSLKSRLTVSKDTSNNQAFLNMMTVETADTAIYYCAQSAITSVTDSAMDHWGQGTSVTVSSAKTTPPSVYPLAPGSAAQTNSMVTLGCLVKGYFPEPVTVTWNSGSLSSGVHTFPAVLQSDLYTLSSSVTVPSSTWPSETVTCNVAHPASSTKVDKKIVPADC”: “soluble”. Take “MGHHHHHHSHMQDGFLTVSIIDATNNRPIQNAVVNIYSMSNGSQSSSTLYQNLRSNESGQVTGLVLPAPDVDYSLQPSDVRPYSQYIVEAIADGYETVVIEGTQLLATIEARQGVPMSPRTRSKRSFSRQSELIFDIGEHTLYGTYPPKIPESNLKPLPPPTGFVVLDNPVVPEFIVVHDGLPEDSSAPNYWIPFKEYIKNIASSEIYSTWPEQTIYANVIAIISFTLNRVFTEWYRNKGYNFTITSTTAYDHKFINNRNLFEPINVVVDAIFNTFIKRPPTSRQPLLAQYCDGQKSQCPDQMTQWGSKDLGDQGYDYESILRYFYGDEIVFERAPIVSGVPVSFPGTTLQVGSSGQYVRTIQNQLNAISNSYPAVPKVIEDGIYGTDTENAVKIFQGIFGLPQSGVVDFKTWYEISRVYVATTRIASLNPLI”: the “soluble on expression in E. coli” value is “soluble”. For the sequence “MAEKIKINNNVFIYPMPVTLLGANVKGKANLMALGWVSRVNANPPMLGVGVNKSHYTPEGIAENGSFSVNFPYSGMVKKTDYCGLVSGEKVDKSGLFEVFYGELKTAPMIKECTLNLECRVVETLEFPTNYFFVGEIIAAYSEEQYLIQGKPDIKKMDPLLLTMPDNSYWTVGDYAGAALKTGKSLMEKRHHHHHH”, the “soluble on expression in E. coli” value is “soluble”. Consider “SDYEKFLLFGDSITEFAFNTRPIEDGKDQYALGAALVNEYTRKMDILQRGFKGYTSRWALKILPEILKHESNIVMATIFLGANDACSAGPQSVPLPEFIDNIRQMVSLMKSYHIRPIIIGPGLVDREKWEKEKSEEIALGYFRTNENFAIYSDALAKLANEEKVPFVALNKAFQQEGGDAWQQLLTDGLHFSGKGYKIFHDELLKVIETFYPQYHPKNMQYKLKDWRDVLDDGSNIMS”, for which the “soluble on expression in E. coli” value is recorded as “soluble”.
